The results in this text go back to patent EP1142907A1.

The target in this test is GAL4-CREBΔLZ fusion protein. Put plainly: cell-based or functional assay.

As for “transcriptional coactivator CBP (CREB-binding protein)”, the transactivation of the pG5CAT reporter after caffeine in HEK293 cells is less than 45 fold.
